Test results as given in publication PMC2193072 (The Journal of Experimental Medicine, 1999).
Like-named read-outs stand apart in the source and are kept apart here. No end group written: not given here.

Key:
[1] = molecular target: soluble I-A^g7 (I-Aα–Fos / I-Aβ–Jun heterodimer) (mouse (NOD) | not stated); assay: peptide dissociation assay
[2] = molecular target: soluble I-A^g7 (I-Aα–Fos / I-Aβ–Jun heterodimer) (mouse (NOD) | not stated); assay: peptide dissociation assay; remark: listed apart in the source
I-A^g7 [3] = format: binding, NOD mice; details: biotinylated peptide, pH 5.0, 37°C
I-A^g7 [4] = format: binding, NOD mice; details: pH 5, competitor 8 nM–25 μM vs biotinylated transferrin peptide (1 μM)
[5] = molecular target: soluble I-A^g7 (I-Aα–Fos / I-Aβ–Jun heterodimer) (mouse (NOD) | not stated); assay: antibody-capture peptide binding assay with europium-streptavidin
[6] = molecular target: soluble I-A^g7 (I-Aα–Fos / I-Aβ–Jun heterodimer) (mouse (NOD) | not stated); assay: as above; remark: listed apart in the source

| Molecule | IC50 [5] [µM] | IC50 [6] [µM] | other results |
| --- | --- | --- | --- |
| Murine transferrin (55–68) peptide, biotinylated |  |  | dissociation time (t1/2) [1]: > 72 h; dissociation time (t1/2) [2]: 45 h |
| Murine serum albumin (560–574) peptide, biotinylated |  |  | dissociation time (t1/2) [1]: > 72 h; dissociation time (t1/2) [2]: > 72 h |
| EEVDMTPADALDDFD [HSV-2 VP16 (430–444)] |  |  | Binding to I-A^g7 in direct binding assay (in words), pH 5.0 (I-A^g7 [3]): little binding; Binding to I-A^g7 in competition assay (in words) (I-A^g7 [4]): competed for binding of the biotinylated transferrin peptide at high peptide concentrations |
| Murine CLIP (86–100) peptide, biotinylated |  |  | dissociation time (t1/2) [2]: 1 h |
| Murine CLIP (86–100) peptide, unlabeled | 50 | > 125 |  |
| PVSQMRMATPLLPRP [Murine CLIP analogue with P at position 98 (P9), unlabeled] | > 125 | > 125 |  |
| PVSQMRMATPLLIRP [Murine CLIP analogue with I at position 98 (P9), unlabeled] | > 125 | > 125 |  |
| PVSQMRMATPLLFRP [Murine CLIP analogue with F at position 98 (P9), unlabeled] | 80 | 50 |  |
| PVSQMRMATPLLYRP [Murine CLIP analogue with Y at position 98 (P9), unlabeled] | > 125 | 60 |  |
| PVSQMRMATPLLWRP [Murine CLIP analogue with W at position 98 (P9), unlabeled] | 80 | > 125 |  |
| PVSQMRMATPLLKRP [Murine CLIP analogue with K at position 98 (P9), unlabeled] | > 125 | > 125 |  |
| PVSQMRMATPLLRRP [Murine CLIP analogue with R at position 98 (P9), unlabeled] | > 125 | > 125 |  |
| PVSQMRMATPLLNRP [Murine CLIP analogue with N at position 98 (P9), unlabeled] | 80 | 125 |  |
| PVSQMRMATPLLTRP [Murine CLIP analogue with T at position 98 (P9), unlabeled] | > 125 | 40 |  |
| GCALLRCIPALDSLTPANED (cysteine pairing not given here; also: biotinylated, position not given here) [Human HSP60 (441–460) peptide, biotinylated] |  |  | dissociation time (t1/2) [1]: 25 h; dissociation time (t1/2) [2]: 14 h |
| PVSQMRMATPLLDRP (also: biotinylated, position not given here) [Murine CLIP 98D analogue, biotinylated] |  |  | dissociation time (t1/2) [1]: 70 h; dissociation time (t1/2) [2]: 23 h |

Further lines, with some results ahead:

| IC50 [5] [µM] | IC50 [6] [µM] | Molecule | other results |
| --- | --- | --- | --- |
| 50 |  | Murine CLIP analogue with V at position 98 (P9), unlabeled (from UniProt P04441 86-100) (peptide) |  |
| 10 | > 125 | PVSQMRMATPLLGRP [Murine CLIP analogue with G at position 98 (P9), unlabeled] |  |
| 2 | 15 | PVSQMRMATPLLARP [Murine CLIP analogue with A at position 98 (P9), unlabeled] |  |
| 40 | > 125 | PVSQMRMATPLLLRP [Murine CLIP analogue with L at position 98 (P9), unlabeled] |  |
| 4 | > 125 | PVSQMRMATPLLHRP [Murine CLIP analogue with H at position 98 (P9), unlabeled] |  |
| 25 | > 125 | PVSQMRMATPLLQRP [Murine CLIP analogue with Q at position 98 (P9), unlabeled] |  |
| 40 |  | PVSQMRMATPLLSRP [Murine CLIP analogue with S at position 98 (P9), unlabeled] |  |
| 40 |  | PVSQMRMATPLLCRP [Murine CLIP analogue with C at position 98 (P9), unlabeled] |  |
